# Data: the supplement of paper PMC10567573
# B1: C22orf15 (parent)
# chain: ITQSWQVSVRVQPRGRAHLLPNPY
# B2: ZNF449 (parent)
# chain: HTGERPYECTVCKKRFTRRSHLIG
# Variants of: B1
# Assay: protein stability index of a GFP-peptide fusion (GPS, HEK-293T) (PSI 1-6); higher = more stable
# Conditions: c terminus: a fixed tail appended
# 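Further: lentivirally expressed fusions sorted by FACS into six bins by GFP to DsRed ratio, PSI derived from sequencing read proportions per bin multiplied by bin number.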
row,Variant,protein stability index
1,ATQSWQVSVRVQPRGRAHLLPNPY,2.73

# Variants of: B2
# Assay: as above
# Conditions: c terminus: a fixed tail appended
row,Variant,protein stability index
1,HTGERPYECTVCKKRFTRRSHLID,2.81
2,HTGERPYECTVCKKRFTRRSHLIK,3.12
3,HTGERPYECTVCKKRFTRRSHLIF,1.2
4,HTGERPYECTVCKKRFTRRSHLIN,2.39
5,HTGERPYECTVCKKRFTRRSHLIY,2.9
6,HTGERPYECTVCKKRFTRRSHLIT,2.45
7,HTGERPYECTVCKKRFTRRSHLIW,2.53
8,HTGERPYECTVCKKRFTRRSHLIP,1.95
9,HTGERPYECTVCKKRFTRRSHLIV,1.6
10,HTGERPYECTVCKKRFTRRSCLIG,2.1
11,HTGERPYECTVCKKRFTRRSQLIG,1.82
12,HTGERPYECTVCKKRFTRRSILIG,1.56
13,HTGERPYECTVCKKRFTRRSRLIG,2.37
14,HTGERPYECTVCKKRFTRRSTLIG,2.83
15,HTGERPYECTVCKKRFTRRSELIG,2.31
16,HTGERPYECAVCKKRFTRRSHLIG,2.42
17,HTGERPYECDVCKKRFTRRSHLIG,1.97
18,HTGERPYECNVCKKRFTRRSHLIG,2.17
19,HTGERPYECMVCKKRFTRRSHLIG,2.51
20,HTGERPYECQVCKKRFTRRSHLIG,1.36
21,HTGERPYECSVCKKRFTRRSHLIG,2.52
22,HTMERPYECTVCKKRFTRRSHLIG,2.38
23,HTNERPYECTVCKKRFTRRSHLIG,1.85
24,HTLERPYECTVCKKRFTRRSHLIG,3.83

row,Variant,protein stability index
1,HTPERPYECTVCKKRFTRRSHLIG,2.52
2,HTVERPYECTVCKKRFTRRSHLIG,1.82
3,HTEERPYECTVCKKRFTRRSHLIG,2.26
4,HTCERPYECTVCKKRFTRRSHLIG,3.04
5,HTIERPYECTVCKKRFTRRSHLIG,2.39
6,HTKERPYECTVCKKRFTRRSHLIG,2.2
7,HWGERPYECTVCKKRFTRRSHLIG,2.13
8,HLGERPYECTVCKKRFTRRSHLIG,2.45
9,HHGERPYECTVCKKRFTRRSHLIG,3.18
10,HKGERPYECTVCKKRFTRRSHLIG,2.4
11,HRGERPYECTVCKKRFTRRSHLIG,2.12
12,HQGERPYECTVCKKRFTRRSHLIG,2.24
13,HAGERPYECTVCKKRFTRRSHLIG,2.85
14,HIGERPYECTVCKKRFTRRSHLIG,1.47
15,HPGERPYECTVCKKRFTRRSHLIG,1.8
16,HCGERPYECTVCKKRFTRRSHLIG,1.42
17,HVGERPYECTVCKKRFTRRSHLIG,1.97
18,HFGERPYECTVCKKRFTRRSHLIG,2.08
19,HMGERPYECTVCKKRFTRRSHLIG,1.76
20,HDGERPYECTVCKKRFTRRSHLIG,2.23
21,HNGERPYECTVCKKRFTRRSHLIG,2.13
22,HTGERPYECTDCKKRFTRRSHLIG,2.44
23,HTGERPYECTRCKKRFTRRSHLIG,2.39
24,HTGERPYECTLCKKRFTRRSHLIG,2.08

row,Variant,protein stability index
1,HTGERPYECTECKKRFTRRSHLIG,3.06
2,HTGERPYECTSCKKRFTRRSHLIG,2.58
3,HTGERPYECTPCKKRFTRRSHLIG,2.58
4,HTGERPYECTGCKKRFTRRSHLIG,2.99
5,HTGERPYECTWCKKRFTRRSHLIG,2.6
6,HTGERPYECTCCKKRFTRRSHLIG,2.29
7,HTGERPYECTKCKKRFTRRSHLIG,3.82
8,HTGERPYECTQCKKRFTRRSHLIG,3.12
9,HTGERPKECTVCKKRFTRRSHLIG,2.44
10,HTGERPCECTVCKKRFTRRSHLIG,3.74
11,HTGERPWECTVCKKRFTRRSHLIG,1.4
12,HTGERPFECTVCKKRFTRRSHLIG,1.44
13,HTGERPPECTVCKKRFTRRSHLIG,2.07
14,HTGERPSECTVCKKRFTRRSHLIG,2.28
15,HTGERPGECTVCKKRFTRRSHLIG,2.01
16,HTGERPYDCTVCKKRFTRRSHLIG,2.72
17,HTGERPYACTVCKKRFTRRSHLIG,1.77
18,HTGERPYYCTVCKKRFTRRSHLIG,2.15
19,HTGERPYHCTVCKKRFTRRSHLIG,2.12
20,HTGERPYGCTVCKKRFTRRSHLIG,1.84
21,HTGERPYTCTVCKKRFTRRSHLIG,2
22,HTGERPYQCTVCKKRFTRRSHLIG,2.76
23,HTGERPYWCTVCKKRFTRRSHLIG,2.23
24,HTGERPYKCTVCKKRFTRRSHLIG,1.96

row,Variant,protein stability index
1,HTGERPYRCTVCKKRFTRRSHLIG,2.22
2,HTGERPYECTVCKKMFTRRSHLIG,2.51
3,HTGERPYECTVCKKHFTRRSHLIG,3.03
4,HTGERPYECTVCKKLFTRRSHLIG,1.39
5,HTGERPYECTVCKKIFTRRSHLIG,2.1
6,HTGERPYECTVCKKFFTRRSHLIG,1.72
7,HTGERPYECTVCKKTFTRRSHLIG,2.52
8,HTGERPYECTVCKKKFTRRSHLIG,2.52
9,HTGERPYECTVCKKYFTRRSHLIG,1.09
10,HTGERPYECTVCKKEFTRRSHLIG,2.04
11,HTGERPYECTVCKKRNTRRSHLIG,2.72
12,HTGERPYECTVCKKRDTRRSHLIG,3
13,HTGERPYECTVCKKRPTRRSHLIG,3.2
14,HTGERPYECTVCKKRSTRRSHLIG,2.51
15,HTGERPYECTVCKKRHTRRSHLIG,3.32
16,HTGERPYECTVCKKRGTRRSHLIG,2.82
17,HTGERPYECTVCKKRFTRRSHMIG,1.86
18,HTGERPYECTVCKKRFTRRSHHIG,3
19,HTGERPYECTVCKKRFTRRSHIIG,2.23
20,HTGERPYECTVCKKRFTRRSHKIG,2.35
21,HTGERPYECTVCKKRFTRRSHDIG,2.6
